Experimental data taken from PMC8262862, “A Prevalent Focused Human Antibody Response to the Influenza Virus Hemagglutinin Head Interface” (mBio, 2021).

Each binder was assayed against T1, HA head domain of A/Texas/50/2012(H3N2), monomeric (Influenza A virus A/Texas/50/2012(H3N2), strain) (assay: BLI). Conditions: both partners purified.
T1 construct: also called monomeric HA heads

Binder | binding result
H2214 Fab, His tag removed (competitor in BLI) (Fab, V domains shown) VH: EVQLLESGGGLVQPGGSLRLSCAASGFTFNHYAMTWVRQAPGKGLEWVASSSGSGRSTYYTDSVKGRFSVSRDNSKNTLYLQMNSLRAEDTAVYYCAKSSNYYGSGSYSPDDYYHMDVWGQGTTVTVSG VL: EIVMTQSPDTLSVSPGERATLSCRASESISSNLAWYQQKPGQVPRLLIYGASTRATGVPARFTGSGSGTEFTLTISSLQSEDFAVYYCQQYNNRLPYTFGQGTKLEIK | binds
D2 H1-1/H3-1 Fab, His-tagged (binding studies) (Fab, V domains shown, not shown: His6, C-terminal, kept) VH: QVQLVQSGGGLVRPGGSLRLSCAASGFTFSSAWMTWVRQAPGKGLEWVANIKEDGSEKYYVDSVKGRFSISRDNAKNSLYLQISSLRAEDTAVYYCARRFVERLWGQSKPYDAVDIWGQGTMVTVSG VL: DIQMTQSPSSLSASVGDRVTITCRASQSISNYLNWYQQKPGKAPKLLIYVASNLQSGVPSRFSGSGSGTDFALTISSLQPEDFASYYCQQSYSPVTTFGGGTKVEIK | binds
D1 H1-17/H3-14 Fab, His-tagged (binding studies) (Fab, V domains shown, not shown: His6, C-terminal, kept) VH: QVQLQESGPGLVKPSESLSLTCSVSGGSVSSNLHYWSWIRQLPGKGLEWIGYISYTGSTKYNPSLNGRVTLSIDASKNQFSLELSSVTAADTAVYYCARDFFEKLIADDLNAFDIWGQGTMVTVSG VL: DIRVTQSPSSLSASVGDRVTITCRASQSISRSLNWYQQRPGKAPKFLIYAASNLQSGVPSRFSGGGSGTDFTLTISSLQPEDFATYYCQETYSRTFGQGTKADIK | binds
